Reference: US20170157198A1

Tests used:
[1] = biological target: T1, TFPI (human TFPI-1α), as coated or added in the ELISA and model assays (human), P10646; assay: ELISA; details: modification not given
[2] = biological target: T1, TFPI (human TFPI-1α), as coated or …; assay: competition; details: modification not given

IC50 [1] | IC50 [2] | Binder
27 nM |  | FQSKGNVFVTGYFARLRAKL [JBT0720]
> 1670 nM |  | LKARLREFYGFVFVNKKSQF [JBT0783]
 | 68 nM | FQSKGAVFVFGYFARLRAKL [JBT0681]
